Read-outs that look alike come from different tables or passages of the source.
Experiments:
human CCR8 [1] = target: T1, human CCR8 (human, UniProt P51685 1-355); test: FACS, CHO-K1-hCCR8 cells
T1 construct: whole, on cells; construct used for the overexpressing cell lines is not described; also called hCCR8
Procedure: (§1) Cells overexpressing human CCR8 were digested with pancreatin, counted and resuspended to a cell density of 1E6 cells/mL. The cell suspension was added to a 96-well V-bottom plate at 100 μL/well and centrifuged at 300 g for 5 min, and the supernatant was discarded. The anti-CCR8 antibodies provided herein was used as a primary antibody and diluted in a 5-fold gradient with an FACS buffer (DPBS containing 2% FBS) from 200 nM. The diluted primary antibody was added at 100 μL/well to resuspend the cells, and the mixture was incubated at 4° C. for 1 h. The plate was washed twice with DPBS and centrifuged at 300×g for 5 min, and the supernatant was discarded. The secondary antibody diluted in a 1:1000 ratio with an FACS buffer was added at 100 μL/well to suspend the cells, and the mixture was incubated at 4° C. for 40 min. The plate was washed twice with DPBS and centrifuged at 300×g for 5 min, and the supernatant was discarded. DPBS was added at 200 μL/well to suspend the cells, and the mixture was loaded on an FACS machine for analysis.

human CCR8 [2] = target: T1, human CCR8; test: FACS, CHO-K1-hCCR8 cells; remark: listed apart in the source
Procedure: as §1

cynomolgus monkey CCR8 = target: T2, cynomolgus monkey CCR8 (cynomolgus monkey, UniProt G7NYJ2 1-355); test: FACS, CHO-K1-CynoCCR8 cells
T2 construct: whole, on cells; also called CynoCCR8
Procedure: as §1, with “cynomolgus monkey CCR8, CHO-K1-CynoCCR8,” for “human CCR8”

T1 sequence (P51685 whole entry): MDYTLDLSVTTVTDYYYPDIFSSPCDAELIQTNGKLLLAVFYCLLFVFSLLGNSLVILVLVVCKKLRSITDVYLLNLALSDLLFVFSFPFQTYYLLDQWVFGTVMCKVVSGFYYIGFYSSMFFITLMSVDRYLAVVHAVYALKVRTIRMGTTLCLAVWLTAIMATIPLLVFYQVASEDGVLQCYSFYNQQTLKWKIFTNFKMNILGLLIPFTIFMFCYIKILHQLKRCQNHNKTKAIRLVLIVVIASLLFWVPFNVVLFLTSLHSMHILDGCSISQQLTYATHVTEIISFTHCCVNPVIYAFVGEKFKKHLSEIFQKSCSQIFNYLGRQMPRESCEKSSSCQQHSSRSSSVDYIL
T2 sequence (G7NYJ2 entry or part of it): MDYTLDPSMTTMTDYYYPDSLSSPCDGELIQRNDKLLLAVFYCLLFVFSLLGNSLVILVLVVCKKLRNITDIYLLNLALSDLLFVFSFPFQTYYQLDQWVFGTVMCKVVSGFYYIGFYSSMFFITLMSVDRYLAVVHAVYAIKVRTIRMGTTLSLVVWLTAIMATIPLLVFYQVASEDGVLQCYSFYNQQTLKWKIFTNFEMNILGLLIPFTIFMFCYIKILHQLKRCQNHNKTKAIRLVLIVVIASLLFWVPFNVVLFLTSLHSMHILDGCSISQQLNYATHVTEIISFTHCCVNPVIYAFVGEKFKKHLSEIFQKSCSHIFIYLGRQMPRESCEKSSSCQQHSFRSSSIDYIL

EC50 (human CCR8 [1]) [nM]	EC50 (human CCR8 [2]) [nM]	EC50 (cynomolgus monkey CCR8) [nM]	Binder
0.47	–	–	PR005335 (antibody, human IgG1, kappa, V domains shown, fully human, human IgG1 constant region) VH: QVQLVQSGGGLVQPGGSLRLSCTASGFTFSYYWLSWVRQAPGKGLEWVANIKQDGSTTYYVDSVKGRFTISRDNAKNSLYLQMNSLRAEDTAVYYCARNWGFDYWGQGTLVTVSS VL: not shown
–	0.67	2.3	PR004324 (antibody, human IgG1, kappa, V domains shown, PTM variant of PR004128, IgG1 with DE mutation) VH: EVQLVESGGGLVQPKGSLKLSCAASGFTFNTYAMNWVRQAPGKGLEWVARIRSKSNNYATYYADSVKDRFTISRDDSQSMLYLQMNNLKTEDTAMYYCVRGKENGNYYAMDFWGQGTSVTVSA VL: DIVMTQAAPSVPVTPGESVSISCRSSKSLLHSNAKIYLYWFLQRPGQSPQLLIYRMSNLASGVPDRFSGSGSGTAFTLRISRVEAEDVGVYYCMQHLEYPLTFGAGTKLEIKR
–	1	6.05	PR004328 (antibody, human IgG1, kappa, V domains shown, PTM variant of PR004128, IgG1 with DE mutation) VH: EVQLVESGGGLVQPKGSLKLSCAASGFTFSTYAMNWVRQAPGKGLEWVARIRSKSNNYATYYADSVKDRFTISRDDSQSMLYLQMNNLKTEDTAMYYCVRGKENGNYYAMDFWGQGTSVTVSA VL: DIVMTQAAPSVPVTPGESVSISCRSSKSLLHSNGKIYLYWFLQRPGQSPQLLIYRMSNLASGVPDRFSGSGSGTAFTLRISRVEAEDVGVYYCMQHLEYPLTFGAGTKLEIKR
–	1.03	6.99	PR004331 (antibody, human IgG1, kappa, V domains shown, heavy-chain semi-humanized variant of PR004128, IgG1 with DE mutation) VH: EVQLVESGGGLVKPGGSLRLSCAASGFTFNTNAMNWVRQAPGKGLEWVGRIRSKSNNYATYYADSVKDRFTISRDDSKSTLYLQMNSLKTEDTAVYYCVRGKENGNYYAMDFWGQGTTVTVSS VL: DIVMTQAAPSVPVTPGESVSISCRSSKSLLHSNGKIYLYWFLQRPGQSPQLLIYRMSNLASGVPDRFSGSGSGTAFTLRISRVEAEDVGVYYCMQHLEYPLTFGAGTKLEIKR
0.49	–	–	PR005329 (antibody, human IgG1, kappa, called CCR8 chimeric antibody; human IgG1 constant region) heavy: not shown light: DIVMTQAAPSVPVTPGESVSISCRSSKSLLHSNGNTYLYWFLQRPGQSPQLLIYRMSNLASGVPDRFSSSGSGTDFTLRISRVEAEDVGVYYCMQHLEYPFTFGAGTKLEIKRTVAAPSVFIFPPSDEQLKSGTASVVCLLNNFYPREAKVQWKVDNALQSGNSQESVTEQDSKDSTYSLSSTLTLSKADYEKHKVYACEVTHQGLSSPVTKSFNRGEC
–	0.76	5.47	PR004337 (antibody, human IgG1, kappa, V domains shown, heavy-chain semi-humanized variant of PR004128, IgG1 with DE mutation) VH: EVQLVESGGGLVQPGGSLKLSCAASGFTFNTNAMNWVRQASGKGLEWVGRIRSKSNNYATYYADSVKDRFTISRDDSKSTLYLQMNSLKTEDTAVYYCVRGKENGNYYAMDFWGQGTTVTVSS VL: DIVMTQAAPSVPVTPGESVSISCRSSKSLLHSNGKIYLYWFLQRPGQSPQLLIYRMSNLASGVPDRFSGSGSGTAFTLRISRVEAEDVGVYYCMQHLEYPLTFGAGTKLEIKR
0.63	–	–	PR005332 (antibody, human IgG1, kappa, same VH/VL as PR005329, other heavy chain entry) heavy: not shown light: DIVMTQAAPSVPVTPGESVSISCRSSKSLLHSNGNTYLYWFLQRPGQSPQLLIYRMSNLASGVPDRFSSSGSGTDFTLRISRVEAEDVGVYYCMQHLEYPFTFGAGTKLEIKRTVAAPSVFIFPPSDEQLKSGTASVVCLLNNFYPREAKVQWKVDNALQSGNSQESVTEQDSKDSTYSLSSTLTLSKADYEKHKVYACEVTHQGLSSPVTKSFNRGEC
–	1.31	3.89	PR004325 (antibody, human IgG1, kappa, V domains shown, PTM variant of PR004128, IgG1 with DE mutation) VH: EVQLVESGGGLVQPKGSLKLSCAASGFTFNTYAMNWVRQAPGKGLEWVARIRSKSNNYATYYADSVKDRFTISRDDSQSMLYLQMNNLKTEDTAMYYCVRGKENGNYYAMDFWGQGTSVTVSA VL: DIVMTQAAPSVPVTPGESVSISCRSSKSLLHSQGKIYLYWFLQRPGQSPQLLIYRMSNLASGVPDRFSGSGSGTAFTLRISRVEAEDVGVYYCMQHLEYPLTFGAGTKLEIKR
–	1.08	13.4	PR004327 (antibody, human IgG1, kappa, V domains shown, PTM variant of PR004128, IgG1 with DE mutation) VH: EVQLVESGGGLVQPKGSLKLSCAASGFTFQTYAMNWVRQAPGKGLEWVARIRSKSNNYATYYADSVKDRFTISRDDSQSMLYLQMNNLKTEDTAMYYCVRGKENGNYYAMDFWGQGTSVTVSA VL: DIVMTQAAPSVPVTPGESVSISCRSSKSLLHSNGKIYLYWFLQRPGQSPQLLIYRMSNLASGVPDRFSGSGSGTAFTLRISRVEAEDVGVYYCMQHLEYPLTFGAGTKLEIKR
–	0.85	3.96	PR004330 (antibody, human IgG1, kappa, V domains shown, heavy-chain semi-humanized variant of PR004128, IgG1 with DE mutation) VH: EVQLVESGGGLVKPGGSLRLSCAASGFTFNTYAMNWVRQAPGKGLEWVGRIRSKSNNYATYYADSVKDRFTISRDDSKSTLYLQMNSLKTEDTAVYYCVRGKENGNYYAMDFWGQGTTVTVSS VL: DIVMTQAAPSVPVTPGESVSISCRSSKSLLHSNGKIYLYWFLQRPGQSPQLLIYRMSNLASGVPDRFSGSGSGTAFTLRISRVEAEDVGVYYCMQHLEYPLTFGAGTKLEIKR
–	0.72	4.21	PR004338 (antibody, human IgG1, kappa, V domains shown, heavy-chain semi-humanized variant of PR004128, IgG1 with DE mutation) VH: EVQLVESGGGLVQPGGSLKLSCAASGFTFNTYAMNWVRQASGKGLEWVGRIRSKSNNYATYYADSVKDRFTISRDDSKSTLYLQMNSLKTEDTAVYYCVRGKENGNYYAMDYWGQGTTVTVSS VL: DIVMTQAAPSVPVTPGESVSISCRSSKSLLHSNGKIYLYWFLQRPGQSPQLLIYRMSNLASGVPDRFSGSGSGTAFTLRISRVEAEDVGVYYCMQHLEYPLTFGAGTKLEIKR
–	0.37	0.75	PR004326 (antibody, human IgG1, kappa, V domains shown, PTM variant of PR004128, IgG1 with DE mutation) VH: EVQLVESGGGLVQPKGSLKLSCAASGFTFNTYAMNWVRQAPGKGLEWVARIRSKSNNYATYYADSVKDRFTISRDDSQSMLYLQMNNLKTEDTAMYYCVRGKENANYYAMDFWGQGTSVTVSA VL: DIVMTQAAPSVPVTPGESVSISCRSSKSLLHSNGKIYLYWFLQRPGQSPQLLIYRMSNLASGVPDRFSGSGSGTAFTLRISRVEAEDVGVYYCMQHLEYPLTFGAGTKLEIKR
–	0.79	3.33	PR004336 (antibody, human IgG1, kappa, V domains shown, heavy-chain semi-humanized variant of PR004128, IgG1 with DE mutation) VH: EVQLVESGGGLVQPGGSLKLSCAASGFTFNTYAMNWVRQASGKGLEWVGRIRSKSNNYATYYADSVKDRFTISRDDSKSTLYLQMNSLKTEDTAVYYCVRGKENGNYYAMDFWGQGTTVTVSS VL: DIVMTQAAPSVPVTPGESVSISCRSSKSLLHSNGKIYLYWFLQRPGQSPQLLIYRMSNLASGVPDRFSGSGSGTAFTLRISRVEAEDVGVYYCMQHLEYPLTFGAGTKLEIKR
–	0.17	0.41	PR004329 (antibody, human IgG1, kappa, V domains shown, PTM variant of PR004128, IgG1 with DE mutation) VH: EVQLVESGGGLVQPKGSLKLSCAASGFTFNTYAMNWVRQAPGKGLEWVARIRSKSNNYATYYADSVKDRFTISRDDSQSMLYLQMNNLKTEDTAMYYCVRGKEQGNYYAMDFWGQGTSVTVSA VL: DIVMTQAAPSVPVTPGESVSISCRSSKSLLHSNGKIYLYWFLQRPGQSPQLLIYRMSNLASGVPDRFSGSGSGTAFTLRISRVEAEDVGVYYCMQHLEYPLTFGAGTKLEIKR
0.44	–	–	PR005125 (antibody, human IgG1, kappa, fully human, human IgG1 constant region) heavy: not shown light: DIVMTQSPLSLSVTLGQPASISCRSSQSLVFSNGNTYLNWFQQRPGQSPRRLIYKVSKRDSGVPDRFSGSGSGTDFTLKISRVEAEDVGVYYCMQGTHWITFGQGTRLEIKRTVAAPSVFIFPPSDEQLKSGTASVVCLLNNFYPREAKVQWKVDNALQSGNSQESVTEQDSKDSTYSLSSTLTLSKADYEKHKVYACEVTHQGLSSPVTKSFNRGEC
0.37	–	–	PR005128 (antibody, human IgG1, kappa, fully human; same VH/VL as PR005125, other heavy chain entry) heavy: not shown light: DIVMTQSPLSLSVTLGQPASISCRSSQSLVFSNGNTYLNWFQQRPGQSPRRLIYKVSKRDSGVPDRFSGSGSGTDFTLKISRVEAEDVGVYYCMQGTHWITFGQGTRLEIKRTVAAPSVFIFPPSDEQLKSGTASVVCLLNNFYPREAKVQWKVDNALQSGNSQESVTEQDSKDSTYSLSSTLTLSKADYEKHKVYACEVTHQGLSSPVTKSFNRGEC
0.47	–	–	PR005330 (antibody, human IgG1, kappa, called CCR8 chimeric antibody; human IgG1 constant region) heavy: not shown light: DIVMTQAATSVLVTPGESVSISCRSSKSLLYSNGNTYLYWFLQRPGQSPQLLIYRMSNLASGVPDRFSGSGSGTAFTLRISRVEAEDVGVYYCMQHLEYPFTFGGGTKLELKRTVAAPSVFIFPPSDEQLKSGTASVVCLLNNFYPREAKVQWKVDNALQSGNSQESVTEQDSKDSTYSLSSTLTLSKADYEKHKVYACEVTHQGLSSPVTKSFNRGEC
0.52	–	–	PR005333 (antibody, human IgG1, kappa, same VH/VL as PR005330, other heavy chain entry) heavy: not shown light: DIVMTQAATSVLVTPGESVSISCRSSKSLLYSNGNTYLYWFLQRPGQSPQLLIYRMSNLASGVPDRFSGSGSGTAFTLRISRVEAEDVGVYYCMQHLEYPFTFGGGTKLELKRTVAAPSVFIFPPSDEQLKSGTASVVCLLNNFYPREAKVQWKVDNALQSGNSQESVTEQDSKDSTYSLSSTLTLSKADYEKHKVYACEVTHQGLSSPVTKSFNRGEC

— patent US20240132603A1 (HARBOUR BIOMED US, published 2024)
